# From PMC9482650, “Quantitative fragmentomics allow affinity mapping of interactomes” (Nature Communications, 2022)
# T1: MPDZ_10, O75970
# T1 sequence (O75970 1624-1722, limits assumed, looked up): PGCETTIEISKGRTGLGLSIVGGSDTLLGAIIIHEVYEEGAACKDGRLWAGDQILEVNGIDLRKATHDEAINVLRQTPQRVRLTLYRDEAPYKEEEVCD
# T2: RADIL, Q96JH8
# T2 sequence (Q96JH8 971-1071, limits assumed, looked up): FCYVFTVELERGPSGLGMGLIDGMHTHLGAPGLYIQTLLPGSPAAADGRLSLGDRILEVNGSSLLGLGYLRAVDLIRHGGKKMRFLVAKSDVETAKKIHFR
# T3: PCLO, Q9Y6V0
# T3 sequence (Q9Y6V0 4491-4600, limits assumed, looked up): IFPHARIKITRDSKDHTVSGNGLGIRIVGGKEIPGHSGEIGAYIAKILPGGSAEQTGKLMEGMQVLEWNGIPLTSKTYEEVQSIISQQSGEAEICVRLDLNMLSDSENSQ
# T4: DFNB31_1, Q9P202
# T4 sequence (Q9P202 135-233, limits assumed, looked up): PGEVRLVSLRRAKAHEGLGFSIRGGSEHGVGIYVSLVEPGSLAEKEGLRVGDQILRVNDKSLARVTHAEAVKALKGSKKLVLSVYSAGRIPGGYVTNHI
# T5: GRIP1_7, Q9Y3R0
# T5 sequence (Q9Y3R0 999-1096, limits assumed, looked up): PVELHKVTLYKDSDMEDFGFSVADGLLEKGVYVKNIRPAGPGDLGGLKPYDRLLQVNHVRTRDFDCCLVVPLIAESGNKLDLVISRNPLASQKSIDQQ
# T6: NHERF3_4, Q5T2W1
# T6 sequence (Q5T2W1 373-468, limits assumed, looked up): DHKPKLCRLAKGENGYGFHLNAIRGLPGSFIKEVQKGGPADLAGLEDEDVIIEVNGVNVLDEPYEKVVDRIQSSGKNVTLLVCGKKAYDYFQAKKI
# T7: LIN7A, O14910
# T7 sequence (O14910 103-200, limits assumed, looked up): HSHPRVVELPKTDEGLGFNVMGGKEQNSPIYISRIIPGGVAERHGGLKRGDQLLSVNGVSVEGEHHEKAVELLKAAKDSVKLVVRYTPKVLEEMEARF
# T8: HTRA4, P83105
# T8 sequence (P83105 378-476, limits assumed, looked up): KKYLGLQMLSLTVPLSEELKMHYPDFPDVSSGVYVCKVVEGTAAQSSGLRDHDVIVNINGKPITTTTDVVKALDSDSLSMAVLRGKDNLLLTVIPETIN
# T9: ARHGEF11, O15085
# T9 sequence (O15085 42-136, limits assumed, looked up): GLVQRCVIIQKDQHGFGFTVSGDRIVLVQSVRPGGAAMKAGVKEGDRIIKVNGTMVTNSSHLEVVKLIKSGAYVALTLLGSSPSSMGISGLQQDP
# T10: TX1BP3, O14907
# T10 sequence (O14907 10-122, limits assumed, looked up): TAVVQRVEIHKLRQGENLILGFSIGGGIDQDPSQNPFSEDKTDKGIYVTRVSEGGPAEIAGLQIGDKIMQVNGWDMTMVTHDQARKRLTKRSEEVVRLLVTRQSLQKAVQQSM
# T11: MPP2, Q14168
# T11 sequence (Q14168 180-250, limits assumed, looked up): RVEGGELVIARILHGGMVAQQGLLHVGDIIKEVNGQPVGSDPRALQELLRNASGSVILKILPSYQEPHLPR
# T12: LNX2_2, Q8N448
# T12 sequence (Q8N448 334-432, limits assumed, looked up): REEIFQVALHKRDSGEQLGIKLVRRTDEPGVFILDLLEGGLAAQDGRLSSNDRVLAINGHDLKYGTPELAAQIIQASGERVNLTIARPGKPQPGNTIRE
# B1: GRIK2, Q13002 (peptide)
# chain: RRLPGKETMA
# B2: DGKH, Q86XP1 (peptide)
# chain: LGRSTPQSEV
# B3: ERBB4, Q15303 (peptide)
# chain: PPYRHRNTVV
# Biological target: TJP1_2, Q07157
# Sequence (Q07157 181-274): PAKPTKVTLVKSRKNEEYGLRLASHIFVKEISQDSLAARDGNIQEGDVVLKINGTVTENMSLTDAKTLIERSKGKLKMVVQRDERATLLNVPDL
# Experiment: holdup assay
# Design: key: below the threshold = too weak to quantify, mostly under pKd 3.1 to 4
# Conditions: plain residues with an end cap or a label only (N-terminal biotin on a linker: ado-ado)
row,pKd,Binder
1,below the threshold,B1
2,below the threshold,B2
3,below the threshold,B3

# Biological target: T1, MPDZ_10, O75970
# Experiment: holdup assay
# Design: key: below the threshold = too weak to quantify, mostly under pKd 3.1 to 4
# Conditions: plain residues with an end cap or a label only (N-terminal biotin on a linker: ado-ado)
row,pKd,Binder
1,below the threshold,B1
2,below the threshold,B2
3,3.95,B3

# Biological target: Inadl_10, Q8NI35
# Sequence (Q8NI35 1673-1763): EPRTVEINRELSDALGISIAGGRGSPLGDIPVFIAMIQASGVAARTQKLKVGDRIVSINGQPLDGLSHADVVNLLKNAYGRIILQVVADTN
# Experiment: holdup assay
# Design: key: below the threshold = too weak to quantify, mostly under pKd 3.1 to 4
# Conditions: plain residues with an end cap or a label only (N-terminal biotin on a linker: ado-ado)
row,pKd,Binder
1,below the threshold,B1
2,below the threshold,B2
3,below the threshold,B3

# Biological target: MAGI1_2, Q96QZ7
# Sequence (Q96QZ7 456-580): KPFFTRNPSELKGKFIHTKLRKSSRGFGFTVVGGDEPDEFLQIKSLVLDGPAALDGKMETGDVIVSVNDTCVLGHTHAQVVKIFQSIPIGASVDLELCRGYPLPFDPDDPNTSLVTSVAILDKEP
# Experiment: holdup assay
# Design: key: below the threshold = too weak to quantify, mostly under pKd 3.1 to 4
# Conditions: plain residues with an end cap or a label only (N-terminal biotin on a linker: ado-ado)
row,pKd,Binder
1,below the threshold,B1
2,below the threshold,B2
3,4.21,B3

# Biological target: MAGI1_1, Q96QZ7
# Sequence (Q96QZ7 1-106): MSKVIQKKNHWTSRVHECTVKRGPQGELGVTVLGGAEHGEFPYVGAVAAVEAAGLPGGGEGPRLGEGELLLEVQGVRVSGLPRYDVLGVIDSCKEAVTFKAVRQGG
# Experiment: holdup assay
# Design: key: below the threshold = too weak to quantify, mostly under pKd 3.1 to 4
# Conditions: plain residues with an end cap or a label only (N-terminal biotin on a linker: ado-ado)
row,pKd,Binder
1,below the threshold,B1
2,below the threshold,B2
3,below the threshold,B3

# Biological target: T2, RADIL, Q96JH8
# Experiment: holdup assay
# Design: key: below the threshold = too weak to quantify, mostly under pKd 3.1 to 4
# Conditions: plain residues with an end cap or a label only (N-terminal biotin on a linker: ado-ado)
row,pKd,Binder
1,below the threshold,B1
2,below the threshold,B2
3,4.21,B3

# Biological target: LNX1_3, Q8TBB1
# Sequence (Q8TBB1 500-596): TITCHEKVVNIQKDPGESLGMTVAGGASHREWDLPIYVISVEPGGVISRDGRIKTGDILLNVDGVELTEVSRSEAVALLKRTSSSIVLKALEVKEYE
# Experiment: holdup assay
# Design: key: below the threshold = too weak to quantify, mostly under pKd 3.1 to 4
# Conditions: plain residues with an end cap or a label only (N-terminal biotin on a linker: ado-ado)
row,pKd,Binder
1,below the threshold,B1
2,below the threshold,B2
3,below the threshold,B3

# Biological target: T3, PCLO, Q9Y6V0
# Experiment: holdup assay
# Design: key: below the threshold = too weak to quantify, mostly under pKd 3.1 to 4
# Conditions: plain residues with an end cap or a label only (N-terminal biotin on a linker: ado-ado)
row,pKd,Binder
1,below the threshold,B1
2,below the threshold,B2
3,below the threshold,B3

# Biological target: GOPC, Q9HD26
# Experiment: holdup assay
# Design: key: below the threshold = too weak to quantify, mostly under pKd 3.1 to 4
# Conditions: plain residues with an end cap or a label only (N-terminal biotin on a linker: ado-ado)
row,pKd,Binder
1,below the threshold,B1
2,3.87,B2
3,4.08,B3

# Biological target: T4, DFNB31_1, Q9P202
# Experiment: holdup assay
# Design: key: below the threshold = too weak to quantify, mostly under pKd 3.1 to 4
# Conditions: plain residues with an end cap or a label only (N-terminal biotin on a linker: ado-ado)
row,pKd,Binder
1,below the threshold,B1
2,3.52,B2
3,3.57,B3

# Biological target: Inadl_9, Q8NI35
# Sequence (Q8NI35 1530-1615): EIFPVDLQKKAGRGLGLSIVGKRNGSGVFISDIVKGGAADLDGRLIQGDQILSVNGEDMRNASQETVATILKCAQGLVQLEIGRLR
# Experiment: holdup assay
# Design: key: below the threshold = too weak to quantify, mostly under pKd 3.1 to 4
# Conditions: plain residues with an end cap or a label only (N-terminal biotin on a linker: ado-ado)
row,pKd,Binder
1,below the threshold,B1
2,below the threshold,B2
3,3.53,B3

# Biological target: MAGI3_2, Q5TCQ9
# Sequence (Q5TCQ9 398-503): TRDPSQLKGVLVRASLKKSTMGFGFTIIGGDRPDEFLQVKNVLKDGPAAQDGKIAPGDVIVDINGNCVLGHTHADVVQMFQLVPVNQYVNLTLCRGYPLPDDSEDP
# Experiment: holdup assay
# Design: key: below the threshold = too weak to quantify, mostly under pKd 3.1 to 4
# Conditions: plain residues with an end cap or a label only (N-terminal biotin on a linker: ado-ado)
row,pKd,Binder
1,below the threshold,B1
2,4.04,B2
3,4.79,B3

# Biological target: T5, GRIP1_7, Q9Y3R0
# Experiment: holdup assay
# Design: key: below the threshold = too weak to quantify, mostly under pKd 3.1 to 4
# Conditions: plain residues with an end cap or a label only (N-terminal biotin on a linker: ado-ado)
row,pKd,Binder
1,below the threshold,B1
2,below the threshold,B2
3,below the threshold,B3

# Biological target: FRMPD2_1, Q68DX3
# Sequence (Q68DX3 770-861): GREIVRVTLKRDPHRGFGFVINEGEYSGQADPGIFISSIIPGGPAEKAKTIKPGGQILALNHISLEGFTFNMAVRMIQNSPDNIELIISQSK
# Experiment: holdup assay
# Design: key: below the threshold = too weak to quantify, mostly under pKd 3.1 to 4
# Conditions: plain residues with an end cap or a label only (N-terminal biotin on a linker: ado-ado)
row,pKd,Binder
1,below the threshold,B1
2,below the threshold,B2
3,3.71,B3

# Biological target: Inadl_5, Q8NI35
# Sequence (Q8NI35 673-780): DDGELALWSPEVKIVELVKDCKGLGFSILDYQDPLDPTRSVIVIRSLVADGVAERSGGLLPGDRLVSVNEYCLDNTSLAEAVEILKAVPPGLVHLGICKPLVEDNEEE
# Experiment: holdup assay
# Design: key: below the threshold = too weak to quantify, mostly under pKd 3.1 to 4
# Conditions: plain residues with an end cap or a label only (N-terminal biotin on a linker: ado-ado)
row,pKd,Binder
1,below the threshold,B1
2,below the threshold,B2
3,3.58,B3

# Biological target: TJP2_1, Q9UDY2
# Sequence (Q9UDY2 24-128): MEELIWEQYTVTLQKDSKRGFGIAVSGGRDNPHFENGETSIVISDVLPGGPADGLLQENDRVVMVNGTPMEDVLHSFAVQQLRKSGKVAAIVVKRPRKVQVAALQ
# Experiment: holdup assay
# Design: key: below the threshold = too weak to quantify, mostly under pKd 3.1 to 4
# Conditions: plain residues with an end cap or a label only (N-terminal biotin on a linker: ado-ado)
row,pKd,Binder
1,below the threshold,B1
2,below the threshold,B2
3,3.81,B3

# Biological target: T6, NHERF3_4, Q5T2W1
# Experiment: holdup assay
# Design: key: below the threshold = too weak to quantify, mostly under pKd 3.1 to 4
# Conditions: plain residues with an end cap or a label only (N-terminal biotin on a linker: ado-ado)
row,pKd,Binder
1,below the threshold,B1
2,below the threshold,B2
3,below the threshold,B3

# Biological target: IL16_3, Q14005
# Sequence (Q14005 1107-1207): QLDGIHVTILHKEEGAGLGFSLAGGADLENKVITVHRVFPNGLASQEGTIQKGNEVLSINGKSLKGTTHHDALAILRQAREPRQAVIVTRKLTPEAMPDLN
# Experiment: holdup assay
# Design: key: below the threshold = too weak to quantify, mostly under pKd 3.1 to 4
# Conditions: plain residues with an end cap or a label only (N-terminal biotin on a linker: ado-ado)
row,pKd,Binder
1,below the threshold,B1
2,below the threshold,B2
3,below the threshold,B3

# Biological target: T7, LIN7A, O14910
# Experiment: holdup assay
# Design: key: below the threshold = too weak to quantify, mostly under pKd 3.1 to 4
# Conditions: plain residues with an end cap or a label only (N-terminal biotin on a linker: ado-ado)
row,pKd,Binder
1,below the threshold,B1
2,below the threshold,B2
3,below the threshold,B3

# Biological target: T8, HTRA4, P83105
# Experiment: holdup assay
# Design: key: below the threshold = too weak to quantify, mostly under pKd 3.1 to 4
# Conditions: plain residues with an end cap or a label only (N-terminal biotin on a linker: ado-ado)
row,pKd,Binder
1,below the threshold,B1
2,below the threshold,B2
3,below the threshold,B3

# Biological target: T9, ARHGEF11, O15085
# Experiment: holdup assay
# Design: key: below the threshold = too weak to quantify, mostly under pKd 3.1 to 4
# Conditions: plain residues with an end cap or a label only (N-terminal biotin on a linker: ado-ado)
row,pKd,Binder
1,below the threshold,B1
2,4.15,B2
3,4.06,B3

# Biological target: T10, TX1BP3, O14907
# Experiment: holdup assay
# Design: key: below the threshold = too weak to quantify, mostly under pKd 3.1 to 4
# Conditions: plain residues with an end cap or a label only (N-terminal biotin on a linker: ado-ado)
row,pKd,Binder
1,below the threshold,B1
2,4.03,B2
3,4.13,B3

# Biological target: T11, MPP2, Q14168
# Experiment: holdup assay
# Design: key: below the threshold = too weak to quantify, mostly under pKd 3.1 to 4
# Conditions: plain residues with an end cap or a label only (N-terminal biotin on a linker: ado-ado)
row,pKd,Binder
1,below the threshold,B1
2,below the threshold,B2
3,below the threshold,B3

# Biological target: T12, LNX2_2, Q8N448
# Experiment: holdup assay
# Design: key: below the threshold = too weak to quantify, mostly under pKd 3.1 to 4
# Conditions: plain residues with an end cap or a label only (N-terminal biotin on a linker: ado-ado)
row,pKd,Binder
1,below the threshold,B1
2,below the threshold,B2
3,4.69,B3

# Biological target: FRMPD2_2, Q68DX3
# Sequence (Q68DX3 944-1038): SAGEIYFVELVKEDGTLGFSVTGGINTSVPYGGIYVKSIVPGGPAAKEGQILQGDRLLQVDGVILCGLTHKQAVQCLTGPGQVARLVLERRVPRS
# Experiment: holdup assay
# Design: key: below the threshold = too weak to quantify, mostly under pKd 3.1 to 4
# Conditions: plain residues with an end cap or a label only (N-terminal biotin on a linker: ado-ado)
row,pKd,Binder
1,below the threshold,B1
2,below the threshold,B2
3,below the threshold,B3
